The target in test [1] is HIS-tagged LC3Bwt (aa 1-119) (human, UniProt Q9GZQ8 1-119). Put plainly: BLI; Octet RED96; N-terminally biotinylated peptides on streptavidin biosensors, quenched with biocytin; HIS-tagged LC3B/GATE-16 proteins as analyte, 6.8 nM to 5 μM (LC3Bwt on NDP52 peptide: 312.5 nM to 20 μM); DPBS with 150 mM NaCl, 1% BSA, 0.02% Tween 20; 1:1 global fit. Particulars: both partners purified.

The target in test [2] is HIS-tagged GATE-16wt (aa 1-115) (human, UniProt P60520 1-115). The description is as above. Conditions: both partners purified.
Sequence of HIS-tagged GATE-16wt (aa 1-115) (P60520 1-115): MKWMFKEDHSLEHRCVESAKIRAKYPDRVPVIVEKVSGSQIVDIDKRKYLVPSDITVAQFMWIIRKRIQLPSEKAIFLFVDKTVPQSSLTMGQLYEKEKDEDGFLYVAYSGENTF

Non-standard residues stand in square brackets, D forms with d. No end group written: not given here. *: point of attachment. Biotin = O=C1N[C@H]2[C@H](CS[C@H]2CCCCC(=O)*)N1; pS = N[C@@H](COP(=O)(O)O)C(=O)O

B1: pS177 OPTN LIR peptide (172-186), biotinylated (peptide)
peptide: Biotin-GSSED[pS]FVEIRMAEG
notes: also called pS177 OPTN (172–186); pS177 OPTN peptide; source: synthetic peptide (GenScript, over 75% purity)
B1: the Kd in test [1] turned out to be 0.8 ± 0.048 µM.

B2: p62 LIR peptide (332-346), biotinylated (peptide)
peptide: Biotin-SGGDDDWTHLSSKEV
notes: human p62/SQSTM1 LIR peptide, residues 332-346; also called p62 (332–346); source: synthetic peptide (GenScript, over 75% purity)
In the case of B2, the binding result in test [2] is listed as “binds”.

B3: OPTN LIR peptide (172-186), biotinylated (peptide)
peptide: Biotin-GSSEDSFVEIRMAEG
notes: human optineurin (OPTN) LIR peptide, residues 172-186; also called OPTN (172–186); OPTN peptide; source: synthetic peptide (GenScript, over 75% purity)
In test [1], B3 gave a Kd of 8.4 µM. That is a single-digit micromolar value.
